Reference: patent US20120083001A1
Where two headings read alike, the source gives them in different places.

Experiments:
[1] = molecular target: β1 adrenergic receptor (rat) (UniProt P18090); assay: cell-based or functional assay
[2] = molecular target: β1 adrenergic receptor (rat) (UniProt P18090); assay: cell-based or functional assay; remark: listed apart in the source

Chain of β1 adrenergic receptor (rat) (P18090 whole entry): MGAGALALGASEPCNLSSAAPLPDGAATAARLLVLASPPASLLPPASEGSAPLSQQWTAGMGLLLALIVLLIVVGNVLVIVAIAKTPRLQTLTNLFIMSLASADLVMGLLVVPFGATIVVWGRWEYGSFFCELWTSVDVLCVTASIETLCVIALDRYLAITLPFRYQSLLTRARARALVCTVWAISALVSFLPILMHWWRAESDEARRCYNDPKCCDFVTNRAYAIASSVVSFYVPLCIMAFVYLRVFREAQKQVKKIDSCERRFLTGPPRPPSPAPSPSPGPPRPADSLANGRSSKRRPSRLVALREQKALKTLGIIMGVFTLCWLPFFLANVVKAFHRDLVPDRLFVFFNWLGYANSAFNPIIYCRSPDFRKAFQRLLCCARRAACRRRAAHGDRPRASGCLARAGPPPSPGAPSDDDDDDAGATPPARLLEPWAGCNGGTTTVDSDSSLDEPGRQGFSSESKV

Gαi (C351G) (from UniProt B2RSH2 2-354) gave a Change Level in Current Density [pA/pF] (ISO 30 nM against no ISO) [1] of -16.4 pA/pF, a Current Change Level [nA] [1] of -0.2 nA and a membrane current value immediately after the pulse, ISO not supplied (whole-cell patch clamp) [1] of -0.2 nA. For the same substance, the membrane current value, ISO supplied (whole-cell patch clamp) [1] was 0.5 nA and the Change Level in Current Density [pA/pF] (ISO 30 nM against no ISO) [2] was -9.14 pA/pF.
